How the values were obtained:
[1] = biological target: T1, myostatin (MSTN) (UniProt O14793)
T1 sequence: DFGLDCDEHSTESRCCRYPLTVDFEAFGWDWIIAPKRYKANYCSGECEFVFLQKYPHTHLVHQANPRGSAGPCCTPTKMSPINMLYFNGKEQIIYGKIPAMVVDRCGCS

[2] = biological target: activin A (UniProt P08476)
[3] = biological target: T2, GDF11 (UniProt O95390)
T2 sequence: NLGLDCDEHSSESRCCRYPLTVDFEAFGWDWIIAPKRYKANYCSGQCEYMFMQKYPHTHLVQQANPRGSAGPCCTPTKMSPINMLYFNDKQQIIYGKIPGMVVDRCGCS

UniProt P08476, sequence (P08476 311-426): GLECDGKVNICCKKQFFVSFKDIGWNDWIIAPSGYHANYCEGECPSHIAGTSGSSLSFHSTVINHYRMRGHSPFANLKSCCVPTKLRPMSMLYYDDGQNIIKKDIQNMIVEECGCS

Row | Substance | IC50 of suppression of 1 nM MSTN activity, pGL3-(CAGA)12 luciferase reporter in HEK293 cells (180-0 nM FST-type protein) [1] [nM] | IC50 of suppression of 1 nM activin A activity, pGL3-(CAGA)12 luciferase reporter in HEK293 cells (180-0 nM FST-type protein) [2] [nM] | IC50 of suppression of 1 nM GDF11 activity, pGL3-(CAGA)12 luciferase reporter in HEK293 cells (180-0 nM FST-type protein) [3] [nM] | IC50 of suppression of 1 nM MSTN activity, pGL3-(CAGA)12 luciferase reporter in HEK293 cells [1] [nM] | IC50 of suppression of 1 nM GDF11 activity, pGL3-(CAGA)12 luciferase reporter in HEK293 cells [3] [nM]
1 | MBP-FST288 (chicken follistatin FST288 fused to maltose-binding protein) (natural protein) | 2.01 | 3.96 | 1.64 |  | 
2 | MBP-FST315 (MBP-fused chicken follistatin FST315) (from UniProt Q90844 29-343) (natural protein) |  |  |  | 4.81 | 6.35
3 | MBP-NDFSD1 (chicken follistatin N-terminal domain and FSD1 fused to maltose-binding protein) (domain or fragment) | 68.9 | 15.3 | 57.9 |  | 
4 | MBP-NDFSD1/1 (chicken follistatin N-terminal domain, FSD1 and a second FSD1 fused to maltose-binding protein) (domain or fragment) | 64 |  | 26.2 |  | 
5 | MBP-NDFSD1/2 (chicken follistatin N-terminal domain, FSD1 and FSD2 fused to maltose-binding protein) (domain or fragment) | 10.5 | 8.59 | 3.56 |  | 

Source: publication PMC4547976
